Laboratory results: patent US20100322948A1, “Bone morphogenetic protein (BMP)-binding domains of proteins of the repulsive guidance molecule (RGM) protein family and functional fragments thereof, and use of same” (ABBOTT GMBH & CO. KG, priority 2007, published 2010)

T1: BMP-4 (Homo sapiens, UniProt P12644)
T1 construct: purchased R&D Systems 314-BM
T1 sequence (P12644 293-408): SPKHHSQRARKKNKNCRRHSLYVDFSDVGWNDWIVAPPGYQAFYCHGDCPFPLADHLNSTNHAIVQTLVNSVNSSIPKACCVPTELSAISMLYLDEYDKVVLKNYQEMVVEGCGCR

T2: BMP-2 (Homo sapiens, UniProt P12643)
T2 construct: purchased R&D Systems 355-BM; host or cells: CHO cells (said of #355-BM in the BRE-Luc section)
T2 sequence (P12643 283-396): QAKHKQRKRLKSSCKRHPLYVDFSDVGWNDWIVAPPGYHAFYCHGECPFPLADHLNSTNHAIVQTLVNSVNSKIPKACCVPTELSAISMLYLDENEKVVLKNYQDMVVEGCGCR

B1: #789: 266-335 Fc 257 Stop no att (Fc fusion, human, UniProt Q96B86 266-335, looked up)
RGM A fragment fused to Fc: SGQHVEIQAKYIGTTIVVRQVGRYLTFAVRMPEEVVNAVEDWDSQGLYLCLRGCPLNQQIDFQAFHTNAE
notes: fragment; also called Fragment 3
B2: Recombinant human BMP-4 (ligand, UniProt P12644 293-408, looked up)
chain: T1 sequence (P12644 293-408)
notes: Bought protein; also called hBMP-4
B3: 47-168-Fc (#786) (Fc fusion)
chain: PCKILKCNSEFWSATSGSHAPASDDTPEFCAALRSYALCTRRTARTCRGDLAYHSAVHGIEDLMSQHNCSKDGPTSQPRLRTLPPAGDSQERSDSPEICHYEKSFHKHSATPNYTHCGLFGD
notes: Expressed in HEK293F cells; IgK leader left out; also called fragment 0; not shown: Factor Xa site from the vector; human IgG Fc (hIgG lambda hc 257-Stop)
B4: Fragment 2 (Fc fusion)
RGM A fragment fused to Fc: IIFKNFQECVDQKVYQAEMDELPAAFVDGSKNGGDKHGANSLKITEKVSGQHVEIQAKYIGTTIVVR
notes: also called 218-284-Fc
B5: Recombinant human BMP-2 (ligand, UniProt P12643 283-396, looked up)
chain: T2 sequence (P12643 283-396)
notes: Bought protein; also called rhBMP-2; recombinant h BMP-2
B6: RGMA-Fc: RGM A Fc fusion protein used as comparison for the fragments (protein)
chain: PCKILKCNSEFWSATSGSHAPASDDTPEFCAALRSYALCTRRTARTCRGDLAYHSAVHGIEDLMSQHNCSKDGPTSQPRLRTLPPAGDSQERSDSPEICHYEKSFHKHSATPNYTHCGLFGDPHLRTFTDRFQTCKVQGAWPLIDNNYLNVQATNTPVLPGSAATATSKLTIIFKNFQECVDQKVYQAEMDELPAAFVDGSKNGGDKHGANSLKITEKVSGQHVEIQAKYIGTTIVVRQVGRYLTFAVRMPEEVVNAVEDWDSQGLYLCLRGCPLNQQIDFQAFHTNAEGTGARRLAAASPAPTAPETFPYETAVAKCKEKLPVEDLYYQACVFDLLTTGDVNFTLAAYYALEDVKMLHSNKDKLHLYERTRDLPG
modifications: left off: a dimerising Fc or GST
notes: RGM A Fc fusion protein used as comparison for the fragments

What was measured:
Recombinant human BMP-4 [1] = target: B2; experiment: ELISA, 266-335-Fc immobilised, BMP-4 titrated, detection with anti-BMP-4 biotin antibody
Protocol: (§1) The test was conducted according to test method 4, variant B above, with immobilization of the fusion proteins (1 mg/mL).

47-168-Fc (#786) [2] = target: B3; experiment: ELISA, 47-168-Fc immobilised, BMP-4 titrated, detection with anti-BMP-4 biotin antibody
Protocol: as §1

Recombinant human BMP-4 [3] = target: B2; experiment: ELISA, BMP-4 coated at 2.5 µg/mL, fragment #786-Fc from 0.5 µg/mL in 1:2 dilutions (triple values), detection anti-human Fc biotin 1:200 and Strep POD 1:5000
Description: The binding of the fusion proteins was detected using anti-human-antibodies.

Recombinant human BMP-4 [4] = target: B2; experiment: ELISA, 218-284-Fc immobilised, BMP-4 titrated, detection with anti-BMP-4 biotin antibody
Protocol: as §1

47-168-Fc (#786) [5] = target: B3; experiment: ELISA, 47-168-Fc immobilised, BMP-2 titrated, detection with anti-BMP-2 biotin antibody
Protocol: as §1

BMP-4 = target: T1, BMP-4; experiment: In vitro interaction test, variant B: immobilized RGMA-Fc fusion proteins, detection of BMP-4 binding
Protocol: (§2) Test Method 4: In Vitro Interaction Test for Determining the Interaction between RGMA and BMP-2 and -4
(§3) The interaction tests were carried out as described below:
(§4) Variant B: Immobilization of Various RGMA-Fc Fusion Proteins and Detection of the Binding of the BMP-2/ or -4 Protein
(§5) Immunoplate Cert. MaxiSorp F96 (Nunc, 439454)
(§6) RGMA-Fc fragments • Volume used: 2.5 μg/mL in Na2CO3; addition: 50 μL per well • 1 hour at 37° C. in damp chamber
(§7) 3. Washing step: • Wash 3× with PBS/0.02% Tween 20
(§8) 4. Blocking: • 3% BSA in PBS/0.02% Tween, 1 hour at 37° C. in damp chamber • Addition : 200 μL per well, incubation: 1 hour at 37° C. in damp chamber
(§9) Recombinant human BMP-2, Catalog No.: 355-BM, Company: R&D Systems; or
(§10) Recombinant human RGM A, R&D Systems; Prod. #2495-RM,
(§11) recombinant human BMP-4, Catalog No.: 314-BM, Company: R&D Systems;
(§12) Concentration in each case: 10 μg/mL
(§13) Dilution steps: in each case 1:2 with PBS/0.02% Tween 20
(§14) 6. Washing step: • Wash 3× with PBS/0.02% Tween 20
(§15) Anti-human BMP-4 biotin antibody; Catalog No.: BAM7572, 1:200 in 1% BSA-PBS-T
(§16) 8. Washing step: • Wash 3× with PBS/0.02% Tween 20
10. Washing step: • Wash 3× with PBS/0.02% Tween 20
ImmunoPure TMB substrate kit; (Pierce, #34021) • Development period: approximately 1-30 minutes • 1:1 mixture of […]; addition: 50 μL per well
12. Stop: • 2.5 M H2SO4; addition: 50 μL per well
The test was conducted according to test method 4, variant B above, with immobilization of the fusion proteins (1 mg/mL). The binding of BMP-4 was detected using anti-BMP-4 biotin antibodies.
(§17) The test was conducted according to test method 4, variant B above, with immobilization of the fusion proteins (1 mg/mL). The binding of BMP-4 and -2 was detected using anti-BMP-4 and anti-BMP-2 biotin antibodies, respectively.

BMP-2 = target: T2, BMP-2; experiment: In vitro interaction test, variant B: immobilized RGMA-Fc fusion proteins, detection of BMP-2 binding; conditions: Working Example 2, FIG. 4, anti-BMP-2 biotin antibodies
Protocol: as §2, §3, §4, §5, §6, §7, §8, §9, §10, §11, §12, §13, §14, §15, §16
10. Washing step: • Wash 3× with PBS/0.02% Tween 20 […]
as §17

Molecule: B1
binding result (Recombinant human BMP-4 [1]): no binding

Molecule: B2
binding result (47-168-Fc (#786) [2]): binds

Molecule: B3
EC50 (read off the curve) (Recombinant human BMP-4 [3]): ~5 ng/mL

Molecule: B4
binding result (Recombinant human BMP-4 [4]): no binding

Molecule: B5
binding result (47-168-Fc (#786) [5]): binds

Molecule: B6
binding of BMP-4 (BMP-4; Working Example 1, FIG. 3, anti-BMP-4 biotin antibodies): Significant binding | binding of BMP-4 (BMP-4; Working Example 2, FIG. 4, anti-BMP-4 biotin antibodies): Significant binding | binding of BMP-2 (BMP-2): Significant binding
